Laboratory results taken from patent US20230399641A1.
Read-outs that look alike come from different tables or passages of the source.

How the values were obtained:
[1] = target: full-length human ACE2 mutant AAA/K353del over-expressed on hACE2-KO 293FT cells (human) (UniProt Q9BYF1)
[2] = target: full-length human ACE2 mutant AKA/K353del over-expressed on hACE2-KO 293FT cells (human) (UniProt Q9BYF1)
[3] = target: full-length human ACE2 mutant K353del over-expressed on hACE2-KO 293FT cells (human) (UniProt Q9BYF1)
[4] = target: No hACE2
[5] = target: full-length human ACE2 mutant AAA/K353del over-expressed on hACE2-KO 293FT cells (human) (UniProt Q9BYF1); remark: listed apart in the source
[6] = target: full-length human ACE2 mutant AKA/K353del over-expressed on hACE2-KO 293FT cells (human) (UniProt Q9BYF1); remark: listed apart in the source
[7] = target: full-length human ACE2 mutant K353del over-expressed on hACE2-KO 293FT cells (human) (UniProt Q9BYF1); remark: listed apart in the source
[8] = target: full-length human ACE2 mutant AKA/K353del over-expressed on hACE2-KO 293FT cells (human) (UniProt Q9BYF1); remark: listed apart in the source
[9] = target: full-length human ACE2 mutant AAA/K353del over-expressed on hACE2-KO 293FT cells (human) (UniProt Q9BYF1); remark: listed apart in the source
[10] = target: full-length human ACE2 mutant AKA/K353del over-expressed on hACE2-KO 293FT cells (human) (UniProt Q9BYF1); remark: listed apart in the source

Substance	% cells stained positive [1] [%]	% cells stained positive [2] [%]	% cells stained positive [3] [%]	% of cells in the PE-positive (RBD-bound) gate [4] [%]	% of cells in the PE-positive (RBD-bound) gate [5] [%]	% of cells in the PE-positive (RBD-bound) gate [6] [%]	% of cells in the PE-positive (RBD-bound) gate [7] [%]	% of cells in the PE-positive (RBD-bound) gate [8] [%]	% of cells in the PE-positive (RBD-bound) gate [9] [%]	% of cells in the PE-positive (RBD-bound) gate [10] [%]
receptor binding domain (RBD) of B.1.351 SARS-CoV-2 spike (residues 319-541) (from UniProt P0DTC2 319-541) (ligand)	3.5	4	3.5	0.41	3.76	3.48	5.07			
receptor binding domain (RBD) of wildtype SARS-CoV-2 spike (residues 319-541) (from UniProt P0DTC2 319-541) (ligand)			1.8					0.56		
receptor binding domain (RBD) of B.1.1.7 SARS-CoV-2 spike (residues 319-541) (from UniProt P0DTC2 319-541) (ligand)	1.6	1.6	1.4							
receptor binding domain (RBD) of P.1 SARS-CoV-2 spike (residues 319-541) (from UniProt P0DTC2 319-541) (ligand)	2.6	2.9	2.3						2.03	1.82
